T1: FHHDbf2-H6Mob1TM9 (Saccharomyces cerevisiae, UniProt P22204+P40484)
T1 construct: made in house; host or cells: Hi5 insect cells (baculovirus)
T1 sequence (P22204 1-572): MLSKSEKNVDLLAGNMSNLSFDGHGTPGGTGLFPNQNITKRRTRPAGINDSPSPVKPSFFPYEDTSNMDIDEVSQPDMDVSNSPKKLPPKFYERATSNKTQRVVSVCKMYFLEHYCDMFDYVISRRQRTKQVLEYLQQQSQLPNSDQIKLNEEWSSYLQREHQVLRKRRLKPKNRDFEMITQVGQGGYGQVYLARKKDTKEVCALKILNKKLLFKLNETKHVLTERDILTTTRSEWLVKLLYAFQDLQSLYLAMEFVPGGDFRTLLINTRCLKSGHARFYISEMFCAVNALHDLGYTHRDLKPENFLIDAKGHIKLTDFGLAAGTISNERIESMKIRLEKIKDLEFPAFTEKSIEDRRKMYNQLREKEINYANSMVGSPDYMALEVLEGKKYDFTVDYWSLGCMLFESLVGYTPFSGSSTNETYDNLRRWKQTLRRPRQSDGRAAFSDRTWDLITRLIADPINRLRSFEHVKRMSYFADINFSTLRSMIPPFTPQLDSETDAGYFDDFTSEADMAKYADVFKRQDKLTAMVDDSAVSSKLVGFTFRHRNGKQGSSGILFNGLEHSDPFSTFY
T1 sequence (P40484 1-314 partner): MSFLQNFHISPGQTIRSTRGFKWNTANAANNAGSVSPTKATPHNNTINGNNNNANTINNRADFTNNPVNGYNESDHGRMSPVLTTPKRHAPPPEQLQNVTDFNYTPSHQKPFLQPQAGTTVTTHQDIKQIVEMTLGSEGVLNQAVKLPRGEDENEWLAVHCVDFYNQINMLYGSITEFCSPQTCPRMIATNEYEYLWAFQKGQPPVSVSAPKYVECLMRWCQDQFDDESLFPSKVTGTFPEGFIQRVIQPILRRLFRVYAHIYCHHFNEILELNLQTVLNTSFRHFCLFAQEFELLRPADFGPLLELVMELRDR


Molecular target: T1, FHHDbf2-H6Mob1TM9
Test: Yeast proteome chip assay
Assay type: biochemical
Settings: [γ-33P]ATP, chips in duplicate
Protocol: The relatively low sequence complexity of the Dbf2 phosphorylation motif diminished the power of using genome-wide bioinformatics screens to identify putative substrates. Accordingly, we carried out a proteome array screen to identify putative yeast substrates. […] After taking into account the proteins phosphorylated in the negative controls, 67 proteins were determined to be putative Dbf2-Mob1 substrates (Table 3).
Yeast proteome microarrays were prepared as previously described. Overexpressed GST-tagged yeast proteins were purified from ~4,400 yeast strains and spotted on slides. To determine the optimal amount of kinase to use for probing proteome chips, we performed trial assays as described (J. Ptacek et al., submitted). […] The full proteome array was probed with 4 μl ^FHHDbf2-^H6Mob1^TM9 in 200 μl of DKB supplemented with [γ-^33P]ATP. As a control, ^FHHDbf2(N305A)-^H6Mob1^TM9 was used to probe the proteome array. […] To control for autophosphorylated proteins, the proteome array was probed with 200 μl of DKB supplemented with [γ-^33P]ATP. Proteome chips were assayed in duplicate in each case. Data analysis was performed as described (J. Ptacek et al., submitted). Briefly, signals were analyzed by a computer algorithm designed to normalize background and identify signals as positive if 3 of 4 spots (each protein is spotted twice on each slide and each kinase or control was tested on 2 slides) were 2 standard deviations above background and the fourth spot was 1.5 standard deviations above background.

[1] = Table 3, GST fusion proteins on proteome chip, computer analysis
[2] = Table 4, the 25 proteins with highest signal relative to protein amount

Molecule	Slide Signal (after normalization) [1]	Slide Signal (after normalization) [2]
YNL101W: GST fusion yeast protein on proteome chip (protein, UniProt P50944 1-713, looked up, GST tag, GST fusion yeast protein on proteome chip) Vacuolar amino acid …: MVTNNGDGEHLGIRRNGNLRHPSNNMKIPRRAQSTVLNSNPFYSRKYSMSTLTPRDICRSVDSRVFVDMSSPNFQTLEDPHRDEIINSVRLNYLNSSKRSSVSHGNEAIPRVNPTKNSSASTIAAANVDSDDDETNLSSAGGDITHDIYKLVKAEDPKRLRRPRSMENVTPKIEHHTKLSSASGLNVPGGFRREFIVNKKRQEHQLNDSASSDFTSHESDSINQSSPSSNQDIDKVPFLTRNFLEFLYVFGHFAGESFEDDFIPDSSNMMIRGEDERSALLSRPDHMKVLPSAKGTTSTKKVFLILLKSFIGTGVLFLPNAFHNGGLFFSVSMLAFFGIYSYWCYYILVQAKSSCGVSSFGDIGLKLYGPWMRIIILFSLVITQVGFSGAYMIFTAKNLQAFLDNVFHVGVLPLSYLMVFQTIIFIPLSFIRNISKLSLPSLLANFFIMAGLVIVIIFTAKRLFFDLMGTPAMGVVYGLNADRWTLFIGTAIFAFEGIGLIIPVQDSMRNPEKFPLVLALVILTATILFISIATLGYLAYGSNVQTVILLNLPQSNIFVNLIQLFYSIAIMLSTPLQLFPAIKIIENKFFPKFTKIYVKHDDLTTRVELRPNSGKLNWKIKWLKNFIRSIIVIIVVSIAYFGSDNLDKFVSVIGSLACIPLVYIYPSMLHLRGNSLPETKGEFWRFKPMLDTILIFFGIASMLYTSYQSIFGV	2.1486	2.1486
YDL019C: GST fusion yeast protein on proteome chip (protein, UniProt Q12451 2-1283, looked up, GST fusion, GST fusion yeast protein on proteome chip) Oxysterol-binding protein …: SREDLSIAEDLNQVSKPLLKVKLLEVLGQGDFKHLKALVDNEFQPKDDPSVQQVLNLILHYAVQVAPILLIKEIVAHWVDQVGDEKSSSKSDDGIHLDLNYQDENGNTPLHLAAAQSRSDVISFLLSQKSINDCVKNKAHQQPLDMCKDLNVAQMIQLKRDDYFLETVHSLRAAMNKRDFSKLDSIWKNPRNLNLLDINGIDPETGTTLLYEYSQKKDIEMCQWLLKHGAEATVKDGKGRSPLDLVKNIKLPAKPSNNVTPEIKLKNLLEKNLREQAIVHEDVASSKPPTYKGFLKKWTNFAHGYKLRWFILSGDGNLSYYKDQSHVDRPRGTLKVSTCRLHIDSSEKLNFELLGGITGTTRWRLKGNHPIETTRWVNAIQSAIRFAKDKEILNKKKAVPPSLALKNKSPALISHSKTQGSLPEASQYYQHTLHKEVIQPSSVSLYRRPSNNLSVVSSEIQLNDNLTESGKRFVSKMIENRLDGSKTPVGVHTGSALQRVRSSNTLKSNRSMQSGSGVASPIDKVPNGANLSQSNTTTGSTASLSDNNYIDNFEGDEANSDDEEEDLGINFDRDEEYIKAQYGPYKEKLDMYEQAISIELSSLIELIEQEEPSPEVWLTIKKSLINTSTIFGKLKDLTYKRDKRLVDMVSKQGDVNNVWVQSVKELEMELSNKTERLASIDKERRGLKKILHKKLLESHATAGNKESLENDKEQESDTTASTLGQIAKFISATKEEDEASDADEFYDAAELVDEVTELTEAHPEISTAAAPKHAPPPVPNETDNDSQYVQDEKSKIESNVEKTSQKFEKQNNLVTEDEPKTDQSLKNFKAEDKESQVKEKTKEIASSVIGEKTIVAVTTVQKRKEEYLLKEGSYLGYEDGIRKRLSMDKDDRPKISLWAVLKSMVGKDMTRMTLPVTFNEPTSLLQRVAEDLEYSELLDQAATFEDSTLRTLYVAAFTASSYASTTKRVAKPFNPLLGETFEYSRPDKQYRFFTEQVSHHPPISATWTESPRWDFWGESFVDTKFNGRSFNVKHLGLWHIKLRPNDNEKEELYTWKKPNNTVIGILIGNPQVDNHGEVNVVNHTTGDHCKLYFKARGWRSSGAYEITGEVYNKKKQKVWILGGHWNEAIFAKKVVKDGDLSLEKTRTAASAGNGPTDDGTKFLIWKANDRPEEPFNLTPFAITLNAPQPHLLPWLPPTDTRLRPDQRAMEDGRYDEAGDEKFRVEEKQRAARRKREENNLEYHPQWFVRDTHPITKAKYWRYTGKYWVKRRDHDLKDCGDIF	0.9962	0.9962
YIL135C: GST fusion yeast protein on proteome chip (protein, UniProt P40463 1-436, looked up, GST tag, GST fusion yeast protein on proteome chip) Protein VHS2: MDTSNHNQDHDSHVAAQRENDNNYMPPSPSMSESSMIFERNVEDPSYLYKTVSNNAANSLSRQSSRTSLFNHNNSSNRNFHNLSQRSSAVNLHLQPSRTNESIASYQTYNPDFVVQTPLDHRRTLENFVPPALDAGCSIVTDDTTGLDDVDMVYSRRPSTIGLDRALGRTRSLSSQSFDNETSPAHPRSPNDHGSRLLRFYSYADMLSDDNNNNVSNATSTSSTANPLRRPPMQGHYSFSSSLLNSPSHLPSPPSASASPPQHMNFTNPFIISRRYSNTTINNANGGTSAGSTTGAALSRSPSNQQYLLKQQRSPSGSARSRRNSNRPGSAANIMIGKPKSKFHMESSGSEGFSSEEEDNTMIERDKLNLKQKLQSQLAQPPSIANMVNDNHNNTNKHKNTINNNIKNSPAFTNSNPSSKSNSNSTITSMNPDTTK	1.116	1.116
YNR006W: GST fusion yeast protein on proteome chip (protein, UniProt P40343 1-622, looked up, GST fusion, GST fusion yeast protein on proteome chip) Vacuolar protein …: MSVSTPSELDALIEQATSESIPNGDLDLPIALEISDVLRSRRVNPKDSMRCIKKRILNTADNPNTQLSSWKLTNICVKNGGTPFIKEICSREFMDTMEHVILREDSNEELSELVKTILYELYVAFKNDSQLNYVAKVYDKLISRGIKFPEKLTLSNSPTAMFDSKTPADWIDSDACMICSKKFSLLNRKHHCRSCGGVFCQEHSSNSIPLPDLGIYEPVRVCDSCFEDYDLKRHDDSKKSKKHRHKRKKDRDYSTPEDEEELIRKAIELSLKESRNSASSEPIVPVVESKNEVKRQEIEEEEDPDLKAAIQESLREAEEAKLRSERQKASRQMQPQQPSPQPQPIHSVDLSDEEKDSIYMFASLVEKMKSRPLNEILEDSKLQNLAQRVFASKARLNYALNDKAQKYNTLIEMNGKISEIMNIYDRLLEQQLQSINLSQQYTLPQVPSDPYNYLTENVQNPAESYQTPPLQQLSSHQYKPQQDVSRQQSVKANSSPTTNIDHLKTIDVTPHAQQKPQSHVELAPSDPPYPKEEAEDEGTQAVQDEESSTQESRERPYPVETENGETSINKRPQGITRYDFPTVPARKFVQPESTVPLPASSSEIPIKEERPPSPQEELLIEL	1.1429	1.1429
YMR239C: GST fusion yeast protein on proteome chip (protein, UniProt Q02555 1-471, looked up, GST fusion, GST fusion yeast protein on proteome chip) Ribonuclease 3: MGSKVAGKKKTQNDNKLDNENGSQQRENINTKTLLKGNLKISNYKYLEVIQLEHAVTKLVESYNKIIELSPNLVAYNEAVNNQDRVPVQILPSLSRYQLKLAAELKTLHDLKKDAILTEITDYENEFDTEQKQPILQEISKADMEKLEKLEQVKREKREKIDVNVYENLNEKEDEEEDEGEDSYDPTKAGDIVKATKWPPKLPEIQDLAIRARVFIHKSTIKDKVYLSGSEMINAHNERLEFLGDSILNSVMTLIIYNKFPDYSEGQLSTLRMNLVSNEQIKQWSIMYNFHEKLKTNFDLKDENSNFQNGKLKLYADVFEAYIGGLMEDDPRNNLPKIRKWLRKLAKPVIEEATRNQVALEKTDKLDMNAKRQLYSLIGYASLRLHYVTVKKPTAVDPNSIVECRVGDGTVLGTGVGRNIKIAGIRAAENALRDKKMLDFYAKQRAAIPRSESVLKDPSQKNKKRKFSDTS	1.593	1.593
YBR118W: GST fusion yeast protein on proteome chip (protein, UniProt P02994 2-458, looked up, GST tag, GST fusion yeast protein on proteome chip) Elongation factor 1-alpha: GKEKSHINVVVIGHVDSGKSTTTGHLIYKCGGIDKRTIEKFEKEAAELGKGSFKYAWVLDKLKAERERGITIDIALWKFETPKYQVTVIDAPGHRDFIKNMITGTSQADCAILIIAGGVGEFEAGISKDGQTREHALLAFTLGVRQLIVAVNKMDSVKWDESRFQEIVKETSNFIKKVGYNPKTVPFVPISGWNGDNMIEATTNAPWYKGWEKETKAGVVKGKTLLEAIDAIEQPSRPTDKPLRLPLQDVYKIGGIGTVPVGRVETGVIKPGMVVTFAPAGVTTEVKSVEMHHEQLEQGVPGDNVGFNVKNVSVKEIRRGNVCGDAKNDPPKGCASFNATVIVLNHPGQISAGYSPVLDCHTAHIACRFDELLEKNDRRSGKKLEDHPKFLKSGDAALVKFVPSKPMCVEAFSEYPPLGRFAVRDMRQTVAVGVIKSVDKTEKAAKVTKAAQKAAKK	2.619	2.619

Reference: article PMC1277818, “Substrate specificity analysis of protein kinase complex Dbf2-Mob1 by peptide library and proteome array screening” (BMC Biochemistry, 2005)
